# T1: purified 185 kD streptococcal antigen (SA) I/II cell surface adhesion molecule (Streptococcus mutans, UniProt P23504 39-1532)
# T1 construct: also called purified SA; streptococcal antigen I/II
# T1 sequence (looked up): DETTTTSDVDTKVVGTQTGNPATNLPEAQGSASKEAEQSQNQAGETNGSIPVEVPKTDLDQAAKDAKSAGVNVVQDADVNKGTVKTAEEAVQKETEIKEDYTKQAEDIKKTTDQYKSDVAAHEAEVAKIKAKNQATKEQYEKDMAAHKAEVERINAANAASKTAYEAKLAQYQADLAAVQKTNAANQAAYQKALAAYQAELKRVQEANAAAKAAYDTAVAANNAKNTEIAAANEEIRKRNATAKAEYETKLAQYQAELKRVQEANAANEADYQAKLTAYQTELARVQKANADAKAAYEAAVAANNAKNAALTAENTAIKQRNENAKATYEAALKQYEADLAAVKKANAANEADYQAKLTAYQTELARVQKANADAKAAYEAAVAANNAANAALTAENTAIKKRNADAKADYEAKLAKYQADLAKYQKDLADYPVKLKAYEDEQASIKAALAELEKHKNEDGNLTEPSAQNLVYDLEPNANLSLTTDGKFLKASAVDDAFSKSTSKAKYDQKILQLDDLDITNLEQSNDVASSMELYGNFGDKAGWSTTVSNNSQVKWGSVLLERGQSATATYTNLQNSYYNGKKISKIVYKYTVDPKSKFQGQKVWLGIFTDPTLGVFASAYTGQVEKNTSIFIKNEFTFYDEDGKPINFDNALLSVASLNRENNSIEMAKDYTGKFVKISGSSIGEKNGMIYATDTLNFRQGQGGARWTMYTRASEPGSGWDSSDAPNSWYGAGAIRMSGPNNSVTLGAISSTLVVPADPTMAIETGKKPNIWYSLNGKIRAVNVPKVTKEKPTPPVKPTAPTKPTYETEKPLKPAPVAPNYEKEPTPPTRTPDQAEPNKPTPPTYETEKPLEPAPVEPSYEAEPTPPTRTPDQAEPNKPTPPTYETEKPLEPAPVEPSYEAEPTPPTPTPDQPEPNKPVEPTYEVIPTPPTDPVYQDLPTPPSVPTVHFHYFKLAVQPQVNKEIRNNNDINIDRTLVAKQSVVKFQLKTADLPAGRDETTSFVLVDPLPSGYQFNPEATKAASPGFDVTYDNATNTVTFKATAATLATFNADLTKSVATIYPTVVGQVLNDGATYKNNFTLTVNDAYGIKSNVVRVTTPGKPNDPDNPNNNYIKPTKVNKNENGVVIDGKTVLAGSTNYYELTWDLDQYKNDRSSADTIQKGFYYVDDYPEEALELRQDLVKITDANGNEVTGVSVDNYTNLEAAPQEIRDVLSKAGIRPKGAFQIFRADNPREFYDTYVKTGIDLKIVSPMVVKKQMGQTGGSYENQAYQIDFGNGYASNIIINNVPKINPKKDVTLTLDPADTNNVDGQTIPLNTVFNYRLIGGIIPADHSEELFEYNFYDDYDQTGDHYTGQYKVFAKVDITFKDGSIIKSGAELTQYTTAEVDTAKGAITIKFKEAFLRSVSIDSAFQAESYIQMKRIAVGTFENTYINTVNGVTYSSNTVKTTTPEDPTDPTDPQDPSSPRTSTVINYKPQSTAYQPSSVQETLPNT
# B1: rabbit secretory component (SC) construct expressed in tobacco (receptor)
# chain: QSSLLGPSSIFGPGEVNVLEGDSVSITCYYPTTSVTRHSRKFWCREEESGRCVTLASTGYTSQEYSGRGKLTDFPDKGEFVVTVDQLTQNDSGSYKCGVGVNGRGLDFGVNVLVSQKPEPDDVVYKQYESYTVTITCPFTYATRQLKKSFYKVEDGELVLIIDSSSKEAKDPRYKGRITLQIQSTTAKEFTVTIKHLQLNDAGQYVCQSGSDPTAEEQNVDLRLLTPGLLYGNLGGSVTFECALDSEDANAVASLRQVRGGNVVIDSQGTIDPAFEGRILFTKAENGHFSVVIAGLRKEDTGNYLCGVQSNGQSGDGPTQLRQLFVNEEIDVSRSPPVLKGFPGGSVTIRCPYNPKRSDSHLQLYLWEGSQTRHLLVDSGEGLVQKDYTGRLALFEEPGNGTFSVVLNQLTAEDEGFYWCVSDDDESLTTSVKLQIVDGEPSPTIDKFTAVQGEPVEITCHFPCKYFSSEKYWCKWNDHGCEDLPTKLSSSGDLVKCNNNLVLTLTLDSVSEDDEGWYWCGAKDGHEFEEVAAVRVELTEPAKVAVEPAKVPVDPAKAAPAPAEEKAKARCPVPRRRQWYPLSRKLRTSCPEPRLLAEEVAVQSAE
# notes: also called rabbit SC
# B2: mouse J chain expressed in tobacco (other)
# chain: GDDEATILADNKCMCTRVTSKIIPSTEDPNEDIVERNIRIVVPLNNRENISDPTSPLRRNFVYHLSDVCKKCDPVEVELEDQVVTATQSNICNEDDGVPETCYMYDRNKCYTTMVPLRYHGETKMVQAALTPDSCYPD
# notes: also called joining chain
# Assays:
# [1] = target: T1, purified 185 kD streptococcal antigen …; assay: ELISA of plant leaf extract on purified SA I/II coated plates
# [2] = target: dIgA-G, plant-expressed dimeric IgA-G with mouse J chain (murine; mouse) (UniProt P01878); assay: initial estimate in extracts of SIgA-G plants (data not shown)
# dIgA-G, plant-expressed dimeric IgA-G with mouse J chain (murine; mouse), sequence (P01878 116-344, form in doubt): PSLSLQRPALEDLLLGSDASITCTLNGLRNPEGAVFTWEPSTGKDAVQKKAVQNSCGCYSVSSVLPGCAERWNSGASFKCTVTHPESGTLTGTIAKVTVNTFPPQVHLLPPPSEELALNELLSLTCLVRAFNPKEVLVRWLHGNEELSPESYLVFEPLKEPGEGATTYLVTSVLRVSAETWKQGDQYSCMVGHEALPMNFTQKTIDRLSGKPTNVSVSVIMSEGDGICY
Binder,binding result [1],percent of SC associated with dimeric IgA-G [2] [%]
B1,no binding,50
B2,no binding,
